Source: patent publication US20250066499A1 (SUNSHINE GUOJIAN PHARMACEUTICAL SHANGHAI, published 2025)
Changes are numbered by the printed parent chain.

Assays:
Experiment in all cases: ELISA, biotinylated antigen on streptavidin plate
CD73-ND-his = biological target: T1, CD73-ND-his (human, UniProt P21589 27-317)
T1 construct: Biotinylated and captured on streptavidin in the ELISA
T1 sequence: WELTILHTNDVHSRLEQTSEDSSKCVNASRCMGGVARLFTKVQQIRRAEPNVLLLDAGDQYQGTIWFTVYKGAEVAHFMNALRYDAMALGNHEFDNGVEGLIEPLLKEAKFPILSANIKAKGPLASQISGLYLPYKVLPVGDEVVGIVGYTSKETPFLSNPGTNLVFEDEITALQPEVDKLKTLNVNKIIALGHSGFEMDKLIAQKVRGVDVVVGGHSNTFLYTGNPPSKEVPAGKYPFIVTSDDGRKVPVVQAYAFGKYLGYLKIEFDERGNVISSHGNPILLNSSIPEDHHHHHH
Method: (§1) The ELISA plates were coated with SA protein diluted to 1.5 μg/mL in coating buffer (50 mM carbonate coating buffer, pH 9.6) and incubated overnight at 4° C. The supernatant was discarded, and the plates were washed three times with PBST. Then, 5% skimmed milk powder prepared with PBS was added for blocking and the plates were incubated for 2 h at 37° C. After washing the plates once with PBST, CD73-biotin protein (prepared by biotinylating CD73-His protein according to the EZ-Link NHS-Biotin Reagent instructions) was diluted to 0.5 μg/mL and added at 100 μL/well for incubation at room temperature for 1 h. The plates were washed three times with PBST, and the prepared murine-derived monoclonal antibodies against human CD73 were serially diluted with 1% BSA buffer prepared with PBST and added to the ELISA plates at 100 μl/well. The plates were incubated at 37° C. for 1 h. After washing the plates three times with PBST, HRP-labeled goat anti-mouse IgG secondary antibody was added and the plates were incubated for 30 min at 37° C. After washing the plates three times with PBST, the residual droplets were patted dry on absorbent paper as much as possible. Then, 100 μl of TMB color developing solution was added to each well, and the plates were incubated in the dark at room temperature for 5 min for color development. Subsequently, 50 μl of 2M H₂SO₄ stop solution was added to each well to terminate the substrate reaction. The OD values were read at 450 nm using a multimode microplate reader to analyze the binding ability of the tested antibodies to the target antigen human CD73-His.
(§2) Referring to the experimental method in Example 3, the affinity of 48A11-HuV33 for various mutant proteins of CD73-ND was determined. The SA protein was diluted to 1 μg/mL for coating the ELISA plates, and the biotinylated CD73 protein (CD73-biotin) was used at a concentration of 0.1 μg/mL.

CD73-ND-E143A = biological target: T2, CD73-ND-E143A (human, UniProt P21589 27-317)
T2 construct: Alanine mutant of CD73-ND
T2 sequence: T1 sequence with E143A
Method: as §1, §2

CD73-ND-V144A = biological target: T3, CD73-ND-V144A (human, UniProt P21589 27-317)
T3 construct: Alanine mutant of CD73-ND
T3 sequence: T1 sequence with V144A
Method: as §1, §2

CD73-ND-K180A = biological target: T4, CD73-ND-K180A (human, UniProt P21589 27-317)
T4 construct: Alanine mutant of CD73-ND
T4 sequence: T1 sequence with K180A
Method: as §1, §2

CD73-ND-L181A = biological target: T5, CD73-ND-L181A (human, UniProt P21589 27-317)
T5 construct: Alanine mutant of CD73-ND
T5 sequence: T1 sequence with L181A
Method: as §1, §2

CD73-ND-N185A = biological target: T6, CD73-ND-N185A (human, UniProt P21589 27-317)
T6 construct: Alanine mutant of CD73-ND
T6 sequence: T1 sequence with N185A
Method: as §1, §2

B1: 48A11-HuV33 (antibody, human IgG4, V domains shown)
VH: QVQLVQSGAEVKKPGASVKVSCKASGYTFTSYWMHWVRQAPGQGLEWIGEINPSIGRTNYNEKFKSRVTLTRDTSTSTAYMELSSLRSEDTAVYYCARRVYGTMDYWGQGTLVTVSS
VL: DIQMTQSPSSLSASVGDRVTITCKASQDINSYLSWFQQKPGKSPKLLIYRANIWVDGVPSRFSGSGSGQDYTFTISSLQPEDIATYYCLQYDELYTFGQGTKVEIK
notes: Humanized
Q: With B1 as the binder, how does the EC50 (CD73-ND-his) read?
A: 0.117 nM

Q: What about the EC50 (CD73-ND-E143A) of the same binder?
A: 0.167 nM

Q: And the EC50 (CD73-ND-V144A)?
A: 0.29 nM

Q: And the EC50 (CD73-ND-K180A)?
A: 0.321 nM

Q: And the EC50 (CD73-ND-L181A)?
A: 0.226 nM

Q: And the EC50 (CD73-ND-N185A)?
A: 0.188 nM
